# Measured values taken from patent US20190367619A1 (ARGENX, published 2019).
# T1: human galectin-10-His (recombinant human galectin-10 with TEV-cleavable N-terminal His-tag) (human)
# T1 construct: SEC-MALLS: dimer in solution; also called Gal10-His; humanGal10-His
# T1 chain: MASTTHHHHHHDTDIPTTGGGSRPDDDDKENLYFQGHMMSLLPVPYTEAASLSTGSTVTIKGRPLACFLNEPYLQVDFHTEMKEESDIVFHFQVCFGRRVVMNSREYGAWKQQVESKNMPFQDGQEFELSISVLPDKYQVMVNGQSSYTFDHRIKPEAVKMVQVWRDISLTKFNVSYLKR
# T2: human galectin-10 as coated in ELISA (soluble galectin-10; tag not given) (human, UniProt Q05315 1-142, limits assumed)
# T2 construct: also called coated galectin-10; Gal10
# T2 sequence: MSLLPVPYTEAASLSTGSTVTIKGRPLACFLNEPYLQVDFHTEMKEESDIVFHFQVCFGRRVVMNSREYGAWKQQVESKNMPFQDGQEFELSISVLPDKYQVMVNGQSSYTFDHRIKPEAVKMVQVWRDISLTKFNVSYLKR
# B1: 1D11 Fab (Fab, V domains shown)
# VH: QVQLVESGGGLVQPGGSLRLSCAASGFTFDDYAMSWVRQAPGKGLEWVSGISWNGGSTYYAESMKGRFTISRDNAKNTLYLQMNSLKSEDTAVYYCAKDRNLGYRLGYPYDYWGQGTQVTVSS
# VL: QSVLTQPPSVSGSPGETVTISCAGTSSDVGYGNYVSWYQQLPGMAPRLLIYEVNKRASGITDRFSGSKSGNTASLTISGLQSEDEGDYYCASYRSSNNAVFGGGTHLTVL
# notes: VH on human CH1 constant domain (with part of the hinge region), VL on human lambda constant domain; also called Fab 1D11; Fab-1D11
# B2: 6F05 Fab (Fab, V domains shown)
# VH: QLQLVESGGGLVQPGGSLRLSCAASGFTFSSYAMSWVRQAPGKGLEWVSAINSGGGSTSYADSVKGRFTISRDNAKNTLYLQMNSLKPEDTAVYYCATPGDRLWYYRYDYWGQGTQVTVSS
# VL: QAGLTQPPSVSGTLGKAVTISCAGTSSDIGYGNYVSWYQQLPGTAPKLLIYKVSRRASGVPDRFSGSKSGNTASLSISGLQSEDEADYYCASYRYRNNVVFGGGTHLTVL
# notes: VH on human CH1 constant domain (with part of the hinge region), VL on human lambda constant domain; also called 6F5; Fab 6F5
# B3: 4E08 Fab (Fab, V domains shown)
# VH: QVQRQESGPGLVKPSQTLSLTCTVSGGSITTSYYAWSWIRQPPGKGLEWMGVIASDGSTYYSPSLKSRTSISRDTSKNQFSLQLSSVTPEDTAVYYCALYIRGSSWSGWSAYDYWGQGTQVTVSS
# VL: QPVLNQPSAVSVSLGQTARITCQGGNFGYYYGSWYQQKPGQAPVLVIYKDSERPSGIPERFSGSSSGGTATLTISRAQAEDEADYYCQSADSSDNPVFGGGTHLTVL
# notes: VH on human CH1 constant domain (with part of the hinge region), VL on human lambda constant domain; also called 4E8; Fab 4E8
# B4: 1C09 Fab (Fab, V domains shown)
# VH: QVQLVESGPGLVKPSQTLSLTCTVSGGSITTNSYYWSWIRQPPGKGLEWMGAIAYSGSTYYSPSLKSRTSISRDTSKNQFTLHLSSVTPEDTAVYYCARRPNWYRALDAWGQGTLVTVSS
# VL: NFMLTQPSAVSVSLGQTARITCQGANLGRYYGIWYQQKPGQAPVQVIYGDSNRPSGIPERFSGSSSGGTATLTISGAQAEDEADYYCQSYESSTSPVFGGGTHLTVL
# notes: VH on human CH1 constant domain (with part of the hinge region), VL on human lambda constant domain; also called 1C9; Fab 1C09
# B5: scFv 6E10 (periplasmic extract, Myc-tagged) (scFv, not shown: small tags and cut ends)
# scFv: QLQLVESGGGLVQPGGSLRLSCAASGFTFSSYWMYWVRQAPGKGLEWVSAINTGGGSTYYADSVKGRFTISRDNAKNTLYLQMNSLKPEDTALYYCARAGSGVAGTGYDYWGQGTQVTVSSGGGGSGGGGSGGGGSQPVLNQPSAVSVSLGQTARITCQGGNFGYYYVSWYQQKPGQAPVLVIYRDSGRPSGIPERFSGSSSGDTATLTISGAQAEDEADYYCQSGSSSDNAVFGGGTHLTVL
# notes: also called 6E010
# B6: scFv 6F06 (periplasmic extract, Myc-tagged) (scFv, not shown: small tags and cut ends)
# scFv: QVQLVESGGGLVQPGGSLRLSCAASEFTFSRYSMSWVRQAPGKGLEWVSTINSGGGSTSYVDSVKGRFTISRDNAKNTLYLQMNSLKPEDTAVYYCTKSQGGISFSTQYGMDYWGKGTLVTVSSGGGGSGGGGSGGGGSNFMLTQPSAVSVSLGQTARITCQGGNFGRYYANWYQQKPGQAPVLVIYKDSERPSGIPERFSGSSSGDTATLTISGAQAEDESDYYCQSGSVSDNAVFGGGTHLAVL
# B7: scFv 6B06 (periplasmic extract, Myc-tagged) (scFv, not shown: small tags and cut ends)
# scFv: QVQRQESGPGLVKPSQTLSLTCTVSGGSITTNYYSWSWIRQPPGKGLEWIGYIAYSGSTSYSPSLKSRTSISRDTSNNQFSLQLSSVTPEDTAVYYCARSRSSPTTFGMDYWGKGTLVTVSSGGGGSGGGGSGGGGSSSALTQPSAVSVSLGQTARITCQGGNFGRYYVSWYTQKPGQAPVLVIYQDSERPTGIPERFSGSSSGDTATLTISGAQAEDEADYYCQSGTSSDNIVFGGGTHLTVL
# Target: T1, human galectin-10-His (recombinant …)
# Assay: BLI OctetRed96, Fab on galectin-10-His
Binder,Kd [nM],koff [s⁻¹]
B1,10.7,0.000299
B2,188,0.00356
B3,147,0.00248
B4,13.4,0.000383

# Target: T1, human galectin-10-His (recombinant …)
# Assay: ELISA, Fab on coated galectin-10-His
Binder,Bmax [OD],EC50 [nM]
B1,0.9,1.6
B2,0.8,26.7
B3,0.7,25.6
B4,1,1.9

# Target: T1, human galectin-10-His (recombinant …)
# Assay: BLI Octet RED96, galectin-10-His on anti-Penta-His tips, scFv periplasmic extract 1/10
# Experimental: Briefly, galectin-10-His tagged diluted in Kinetic Buffer was captured on Anti-Penta His 1K sensor tips until an immobilization level of 1 nm was reached. Then, diluted periplasmic extracts (1/10) were applied and association/dissociation to immobilized galectin-10-His was measured using the ForteBio Data analysis 9.0 software (subtraction of the reference Tips, 1.1 binding model). During the screening, only the dissociation (off-rate) of the scFv can be determined since the effective concentration of the scFv is unknown and can vary a lot from clone to clone. […] Therefore, taking into consideration the ELISA and BLI data, a new panel of lead scFvs was selected.
row,Binder,koff [s⁻¹]
1,B5,0.016
2,B6,0.0057
3,B7,0.0058

# Target: T2, human galectin-10 as coated in ELISA …
# Assay: ELISA, scFv periplasmic extract on coated soluble galectin-10, anti-Myc-HRP
row,Binder,ELISA binding (OD values) [OD]
1,B5,3.7
2,B6,3.8
3,B7,3.7
